Tests used:
caspase-3/7 [1] = assay: Intracellular caspase activity (Apo-ONE Caspase-3/7), H2122; format: cell-based, human; settings: H2122, Ab alone or Ab linked, 4 hours
Procedure: (§1) In order to investigate the cell death mechanism thereof, the constructed antibodies were assayed for caspase activity. The activity of caspase-3/7 was measured using Apo-ONE® Homogeneous Caspase-3/7 Assay kit (Promega, U.S.A.). In this assay, the human colorectal cancer cell line Colo205 (ATCC, U.S.A.), the human pancreatic cancer cell line Miapaca-2 (ATCC, U.S.A.), and the lung cancer cell line H2122 (ATCC, U.S.A.) were employed. A suspension of each tumor cell line having a concentration of 1×10^5 cells/ml was plated at a volume of 50 μl per well into 96-well cell culture plates and cultured for 16-24 hours in a constant temperature and humidity chamber. The cells were treated with predetermined concentrations (0.01-10000 ng/ml) of the antibody alone (Ab alone) or in combination with a crosslinking antibody (anti-human Fc) (Serotec, U.S.A.) (Ab linked) and then cultured for 4 hours. […] When the reaction reached a predetermined level, fluorescence was read at 520 nm using a spectrophotometer (Molecular Device). Caspase activity was calculated as a fold increase of relative fluorescence units (RFU) of a test substance-treated group (treated RFU) to over the relative fluorescence units of a culture medium-treated group (untreated RFU) (Caspase activity=treated RFU/Untreated RFU). […]

caspase-3/7 [2] = assay: Intracellular caspase activity (Apo-ONE Caspase-3/7), Colo205; format: cell-based, human; settings: Colo205, Ab alone or Ab linked, 4 hours
Procedure: as §1

[3] = system: human pancreatic cancer cell line Miapaca-2; assay: Tumor cell death assay, co-treatment with gemcitabine, Miapaca-2; format: cell-based; settings: Miapaca-2, gemcitabine 3 nM-300 nM, 48 to 72 hours
Procedure: (§2) Effects obtained from co-treatment with the above constructed antibody and gemcitabine were evaluated using in vitro tumor cell death assay.
(§3) The human pancreatic cancer cell lines Miapaca-2 (ATCC, U.S.A.) and Panc-1 (ATCC, U.S.A.) were each suspended at a density of 1×10^5 cells/ml. The suspensions were added in an amount of 50 μl to each well of 96-well cell culture plates and incubated for 16-24 hours in a constant temperature and humidity chamber. The cancer cell lines were treated with the anti-DR5 antibodies of the present disclosure including D0 in combination with certain concentrations (3 nM-300 nM) of gemcitabine and cultured for 48 to 72 hours. The cells were further incubated for 1 to 3 hours after addition of 10 μl of a resazurin solution (Invitrogen, U.S.A.) per well. When the reaction proceeded to a predetermined level, fluorescence was read at 590 nm using a spectrophotometer (Molecular Device). Cell viability was calculated as the percentage of relative fluorescence units (RFU) of a test substance-treated group (treated RFU) to relative fluorescence units of a culture medium-treated group (untreated RFU) (Cell viability (%)=treated RFU/Untreated RFU×100). The results are depicted in FIGS. 6a to 6r. Representative results are depicted in FIGS. 11a (Miapaca-2) and 11b (Panc-1). For comparison, the control antibody AP was treated in the same manner

caspase-3/7 [4] = assay: Intracellular caspase activity (Apo-ONE Caspase-3/7), Miapaca-2; format: cell-based, human; settings: Miapaca-2, Ab alone or Ab linked, 4 hours
Procedure: as §1

[5] = system: human pancreatic cancer cell line Panc-1; assay: Tumor cell death assay, co-treatment with gemcitabine, Panc-1; format: cell-based; settings: Panc-1, gemcitabine 3 nM-300 nM, 48 to 72 hours
Procedure: as §2, §3

Human DR5 = Human DR5 (Homo sapiens, UniProt O14763); assay: Binding affinity of antibody to human DR5 (BIAcore, CM5 chip)
Procedure: In order to measure affinity, human DR5 was coupled to carboxylated dextran biosensor chips (CM5, GE) according to the manufacturer's instruction. Association and dissociation rates were assessed by injecting IgG proteins that were 2-fold serially diluted to 5 nM, 2.5 nM, 1.25 nM, 0.625 nM, 0.313 nM, and 0.156 nM.
Association and dissociation rates were depicted in association and dissociation sensorgrams and calculated using a simple 1:1 Langmuir binding model (BIAcore X100 Evaluation Software, ver. 2.0). The equilibrium dissociation constants (KD), which is the ratio of dissociation constant (Kd) to association constant (Ka), were confirmed to be in the sub-nanomolar range. Measurements of the binding of antibody D0 and DA1 to DA35 of the present disclosure to DR5 are given in Table 11 below (antibody names are given as the names of the clones from which the antibodies were derived). A representative sensorgram for D0 is depicted in FIG. 1.

B1: DA29: humanized or deimmunized variant of parental clone D0; CDRs SEQ ID NO 1, 2, 7 / 4, 10, 13 (antibody, V domains shown)
VH: AVTLDESGGGLQTPGGGLSLVCKGSGFTFSSFNMLWVRQAPGKGLEWVAGIGKSDRYTGYGSAVKGRATISRDDGQSTARLQLNNLRAEDTGTYYCVKDAGSGCGSGGWTGACIDTWGHGTEVIVSS
VL: LTQPSSVSANLGGTVEITCSGGDSYAGSYYYGWYQQKAPGSAPVTVIYNNNNRPSNIPSRFSGSTSGSTATLTITGVQAEDEATYFCGSRDSSYVGIFGAGTTLTVL
caspase-3/7 [1]
  activity of caspase-3/7: increase in the activity of casapse-3/7
caspase-3/7 [2]
  activity of caspase-3/7: increase in the activity of casapse-3/7
[3]
  apoptotic activity upon co-treatment with gemcitabine relative to each individual substance: increased apoptotic activity
caspase-3/7 [4]
  activity of caspase-3/7: increase in the activity of casapse-3/7
[5]
  apoptotic activity upon co-treatment with gemcitabine relative to each individual substance: increased apoptotic activity
Human DR5; association rate, Human DR5, 1:1 Langmuir binding model
  Ka(1/Ms): 1.21 × 10^06 1/Ms
Human DR5; equilibrium dissociation constant, Human DR5
  Kd: 69.8 pM

Reference: patent US11840574B2, “Anti-DR5 antibody and use thereof” (DONG-A ST CO., LTD., priority 2017, dated 2023)
